Laboratory results: article PMC5686073, “Suppression of SRCAP chromatin remodelling complex and restriction of lymphoid lineage commitment by Pcid2” (Nature Communications, 2017)

Target: T1, His-PCID2 (PCI domain-containing protein 2) (mouse, UniProt Q8BFV2 1-399)
T1 construct: PCID2 (PCI domain-containing protein 2), mouse full-length Pcid2 subcloned into pETDuet; the plasmid section names only the mouse construct; also called His-tagged PCID2; recombinant PCID2 protein; source: E. coli, purified (Ni-NTA His-resins)
T1 sequence (Q8BFV2 whole entry, the tested form may be a part): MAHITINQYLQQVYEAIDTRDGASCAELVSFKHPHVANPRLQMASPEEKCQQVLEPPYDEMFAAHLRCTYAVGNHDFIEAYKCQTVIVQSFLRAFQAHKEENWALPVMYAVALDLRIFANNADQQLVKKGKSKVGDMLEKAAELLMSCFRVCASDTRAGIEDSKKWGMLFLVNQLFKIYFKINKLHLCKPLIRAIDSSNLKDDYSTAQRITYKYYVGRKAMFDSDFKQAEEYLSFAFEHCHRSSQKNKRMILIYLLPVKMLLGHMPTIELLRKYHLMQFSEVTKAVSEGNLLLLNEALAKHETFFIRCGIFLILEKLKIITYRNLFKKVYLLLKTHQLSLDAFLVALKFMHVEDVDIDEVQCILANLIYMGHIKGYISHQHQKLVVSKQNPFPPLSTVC
Assay: pull-down; GST-ZNHIT1 incubated with His-PCID2 protein, GST pulldown
Details: both partners purified

B1: GST-ZNHIT1 (Zinc finger HIT-type containing 1) (natural protein, mouse, UniProt Q8R331 1-154, looked up)
chain: MVEKKPAVRSQDPGQRRVLDRAARQRRINRQLEALENDNFQDDPHAGLPQLGKRLPQFDDDADTGKKKKKTRGDHFKLRFRKNFQALLEEQNLSASEGPNYLTACAGPPSRPQRPFCAVCGFPSPYTCVSCGARYCTVRCLGTHQETRCLKWTV
notes: ZNHIT1 (Zinc finger HIT-type containing 1, p18^hamlet), mouse Znhit1 cloned into pGEX-6P-1; Vector pGEX-6P-1; also called GST-tagged ZNHIT1; p18^hamlet; source: E. coli, purified (Glutathione Sepharose 4B)
Does B1 bind?
Result: binds
